Laboratory results as given in article doi:10.1101/2024.09.02.610668 (bioRxiv, 2024).
Substitutions are numbered along the chain they refer to. In names and notes the source's numbering stands.

Target: G. gallus FANCD2 (G. gallus, UniProt Q68Y81 1-1439)
Experiment: cross-linking

Chain of G. gallus FANCD2 (Q68Y81 whole entry): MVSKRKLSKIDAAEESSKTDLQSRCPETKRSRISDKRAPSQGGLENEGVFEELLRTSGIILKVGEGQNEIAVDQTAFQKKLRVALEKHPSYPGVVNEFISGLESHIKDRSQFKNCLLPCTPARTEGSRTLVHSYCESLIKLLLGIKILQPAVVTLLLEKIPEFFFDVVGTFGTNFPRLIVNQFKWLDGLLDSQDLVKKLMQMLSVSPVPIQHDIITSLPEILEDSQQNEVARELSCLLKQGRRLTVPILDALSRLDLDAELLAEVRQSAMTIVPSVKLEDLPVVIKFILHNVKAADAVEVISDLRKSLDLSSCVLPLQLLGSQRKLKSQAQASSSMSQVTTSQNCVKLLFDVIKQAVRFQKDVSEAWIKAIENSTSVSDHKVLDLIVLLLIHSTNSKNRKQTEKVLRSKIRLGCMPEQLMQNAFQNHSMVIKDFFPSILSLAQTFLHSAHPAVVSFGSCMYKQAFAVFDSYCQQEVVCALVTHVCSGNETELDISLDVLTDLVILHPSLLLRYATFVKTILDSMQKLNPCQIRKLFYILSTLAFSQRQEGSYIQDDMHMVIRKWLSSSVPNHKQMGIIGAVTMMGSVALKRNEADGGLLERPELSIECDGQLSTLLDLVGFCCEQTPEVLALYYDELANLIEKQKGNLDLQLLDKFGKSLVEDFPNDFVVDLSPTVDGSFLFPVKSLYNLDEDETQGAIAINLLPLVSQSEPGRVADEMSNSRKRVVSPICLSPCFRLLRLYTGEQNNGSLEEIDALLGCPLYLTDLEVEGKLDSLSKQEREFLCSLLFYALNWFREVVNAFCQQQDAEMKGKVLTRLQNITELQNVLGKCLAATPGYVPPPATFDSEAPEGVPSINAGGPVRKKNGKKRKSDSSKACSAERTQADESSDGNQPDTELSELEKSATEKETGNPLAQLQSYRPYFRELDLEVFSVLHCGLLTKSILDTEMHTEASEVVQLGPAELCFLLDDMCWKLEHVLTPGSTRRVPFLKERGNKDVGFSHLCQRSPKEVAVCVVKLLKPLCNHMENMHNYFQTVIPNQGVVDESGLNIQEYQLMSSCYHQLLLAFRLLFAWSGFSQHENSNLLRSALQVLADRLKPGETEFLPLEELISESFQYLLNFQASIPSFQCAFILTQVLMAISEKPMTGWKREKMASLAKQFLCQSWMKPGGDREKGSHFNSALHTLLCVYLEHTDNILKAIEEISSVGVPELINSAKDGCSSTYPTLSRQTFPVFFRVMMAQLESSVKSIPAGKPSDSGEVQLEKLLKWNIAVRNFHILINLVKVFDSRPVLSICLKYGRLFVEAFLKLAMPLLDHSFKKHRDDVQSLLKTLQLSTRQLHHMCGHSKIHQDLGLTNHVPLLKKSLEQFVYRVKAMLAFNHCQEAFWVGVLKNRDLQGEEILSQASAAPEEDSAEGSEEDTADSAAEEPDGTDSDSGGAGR

B1: G. gallus FANCI, wild type (natural protein, UniProt B0I564 1-1338, looked up)
chain: MAQRILQLAAEGSPERLQEALQGLTEGELGDMVTRQALRGRETAALLKGIFKGSPCSQQSGVLRRLQVYKHCVSLVESGDLHVGKVSEIIGLLMLEARQLPGHALAELATLFVEVIKRGSLSNGKSLELFSTVLTALSNSKESLAYGKGELNGEEFKKQLINTLCSSKWDPQCVIHLANMFRDIPLSGEELQFVVEKVLRMFSKLDLQEIPPLVYQLLLLSAKGSKKTVLEGIISFFNQLDKRQKEEQRVPQSADLEVATVPLDQLRHVEGTVILHIVSAINLDQDIGEELIKHLKTEQQKDPGKALCPFSVSLLLSTAVKHRLQEQIFDFLKTSITRSCKDLQILQASKFLQDLCPQQYDVTAVILEVVKNSAFGWDHVTQGLVDLGFSLMESYEPKKSFGGKAAETNLGLSKMPAQQACKLGASILLETFKVHEPIRSDILEQVLNRVLTKAASPVSHFIDLLSNIVVSAPLVLQNSSSRVTETFDNLSFLPIDTVQGLLRAVQPLLKVSMSVRDSLILVLQKAIFSRQLDARKAAVAGFLLLLRNFKILGSLTSSQCSQAIGATQVQADVHACYNSAANEAFCLEILGSLRRCLSQQADVRLMLYEGFYDVLRRNSQLASSIMETLLSQIKQYYLPQQDLLPPLKLEGCIMAQGDQIFLQEPLAHLLCCIQHCLAWYKSTVHLCKGAEDEEEEEDVGFEQNFEEMLESVTRRMIKSELEDFELDKSADFSPSSGVGVKNNIYAIQVMGICEVLIEYNFKIGNFSKNKFEDVLGLFTCYNKLSEILKEKAGKNKSTLGNRIARSFLSMGFVSTLLTALFRDNAQSHEESLAVLRSSTEFMRYAVSVALQKVQQLEEMGQTDGPDGQNPEKMFQNLCKITRVLLWRYTSIPTAVEESGKKKGKSISLLCLEGLLRIFNTMQQLYAARIPQFLQALDITDGDAEEADINVTEKAAFQIRQFQRSLVNQLSSAEDDFNSKETQLLITILSTLSKLLDPGSQQFLQFLTWTVKICKENALEDLSCCKGLLTLLFSLHVLYKSPVSLLRELAQDIHACLGDIDQDVEIESRSHFAIVNVKTAAPTVCLLVLGQADKVLEEVDWLIKRLTILGSDTSEDSTQASNQTQALEKGVILQLGTLLTVFHELVQTALPAGSCVDSLLRSLSKTYAILTSLIKHYIQACRSTSNTVPGRLEKLVKLSGSHLTPQCYSFITYVQNIHSESLSFAEEKKKKKKEDETAVVSTVMAKVLRDTKPIPNLIFAIEQYEKFLIHLSKKSKVNLMQYMKLSTSRDFRINASMLDSVLQEQNTEDAENEPDNNQSGTAEQPDENQEPQKKRRRKK
Does B1 bind?
Result: binds

B2: G. gallus FANCI, phosphomimetic S558D, S561D, T567D (natural protein, UniProt B0I564 1-1338, looked up)
chain: B1 chain with S558D, S561D, T567D
Does B2 bind?
Result: binds
